# Test results reported in patent US11542481B2, “Morphinan N-demethylase isolated from the methylobacterium thebainfresser and methods of use thereof” (priority 2017, dated 2023).
# Tests used:
# [1] = MND enzyme pH optimum assay; format: biochemical; conditions: 20 min
# Method: Enzyme assays with 100 μl purified MND enzyme (˜36 μg), 7.5 μM thebaine, and 60 mM buffer (citrate buffer pH 4 and pH 5, potassium phosphate buffer pH 6.0, pH 7.0, and pH 8.0, and glycine-NaOH buffer pH 9, pH 10, and pH 10.5) in a total assay volume of 200 μl were allowed to incubate at 30° for 20 minutes. Assays with no enzyme and a purified pET28a empty vector control in pH 8.0 were included. The remaining protocol was the same as for the temperature optimum above. A supplemental pH assay was run in the same manner as above to verify the low pH results using a glycine-HCL buffer for pH 2, 3, and 4 and citrate buffer for pH 4, 5, and 6.
# [2] = format: cell-based, E. coli; conditions: BL21 Star (DE3) cells, toluene treated, 20 μM thebaine, overnight 30° C.
# [3] = MND solvent stability assays; format: biochemical; conditions: for reduction in activity: pH 7.0, 30° C., 20 min
# Method: FIG. 27. […] Enzyme assays with 5% and 25% of DMSO, methanol, chloroform, tetrahydrofuran, toluene, heptane, and diethyl ether were performed in duplicate and contained 30 mM potassium phosphate buffer pH 7.0, 36 μg purified enzyme, and 1500 pmol of thebaine. Assays were allowed to proceed for 20 min at 30° C. and analyzed by LC-MS/MS using the QTRAP 6500.
# Enzymes used in pharma manufacturing must withstand harsh conditions and tolerate solvents, especially if the substrate is insoluble in water (FIG. 27). MND activity was tested in the following solvents at 5% and 25% concentration: DMSO, methanol, chloroform, tetrahydrofuran, toluene, heptane, and diethyl ether.
# [4] = Proteinase K treatment and cofactor addition, conversion of thebaine to northebaine; format: biochemical; conditions: 1 hour Proteinase K digestion before 20 min assay, pH 7.0
# Method: The first of two assays performed included adding 1500 pmol FAD to the 200 MND enzyme assay including 100 μl purified MND (˜36 μg) and 1500 pmol thebaine in 30 mM potassium phosphate buffer pH 7.0 with and without a prior 1 hour digest (of MND enzyme) with Proteinase K. Controls included a no enzyme control, FAD addition to a no enzyme control, a pET28a empty vector control, a pET28a empty vector control with FAD, and a pET28a empty vector control digested with Proteinase K followed by FAD addition. Assays were allowed to incubate for 20 minutes and then processed as in section 23.0. A second set of assays was performed, in duplicate, to validate the results found in the previous assay in addition to testing more cofactors. This assay included the following conditions; MND enzyme, MND enzyme pre-digested with Proteinase K for 1 hour, MND enzyme digested with Proteinase K in the presence of 1% SDS and 10 mM EDTA, MND enzyme with 1% SDS and 10 mM EDTA (no Proteinase K pre-digestion), pET28a empty vector, pET28a empty vector pre-digested with Proteinase K for 1 hour, pET28a empty vector digested with Proteinase K in the presence of 1% SDS and 10 mM EDTA, MND enzyme with the addition of 1500 pmol FMN, pET28a empty vector with the addition of 1500 pmol FMN, MND enzyme with the addition of 1500 pmol PLP and pET28a empty vector with the addition of 1500 pmol PLP. Assays were allowed to proceed for 20 minutes prior to processing and quantitation as described in section 23.0.
# [5] = MND enzyme stability assay; format: biochemical; conditions: pre-incubated at 30° C. in assay buffer pH 7.0 up to 72 hours, then 20 min with thebaine
# Method: 100 μl purified MND enzyme (˜36 μg) was incubated in 30 mM potassium phosphate buffer pH 7.0 at 30° C. for 72, 48, 24, 6, 3, and 1 hours prior to addition of 1500 pmol thebaine in a total volume of 200 μl. The assay was allowed to proceed for 20 minutes after substrate addition and was processed and analyzed as in section 23.0.
# [6] = MND enzyme temperature optimum assay; format: biochemical; conditions: 20 min assays at 20° C.-80° C., pH 8.0, 7.5 μM thebaine
# Method: Enzyme assays with 100 μl purified MND enzyme (˜36 μg), 7.5 μM thebaine, and 30 mM potassium phosphate pH 8.0 in a total assay volume of 200 μl were performed in duplicate and allowed to incubate at the following temperatures for 20 minutes: 20° C., 25° C., 30° C., 40° C., 50° C., 60° C., 70° C. and 80° C. Assays with purified pET28a empty vector control were included at each temperature. Assays were quenched by the addition of 400 μl MeOH followed by rapid mixing for 30 s then subject to centrifugation (16,000×g, 30 min, RT). Samples were diluted further (total of 50 fold dilution) to achieve an analyte concentration of 0.15 μM prior to filtration (low protein binding 0.2 μm, 4 mm, PTFE; Millipore) and introduction into the QTRAP 6500 using Method 1.
molecule,measurement,setting,value
"MND enzyme: morphinan N-demethylase identified from the Methylobacterium Thebainfresser, amino acid sequence SEQ ID NO: 2, His-tagged, expressed in E. coli (protein, His tag; Methylobacterium Thebainfresser) MTEKTPKLGSEAANKLGLEADISRRDMVGGVLIGAGAALLASVAPGAINRALAEGPSRLPPVRGSGTGWRGIEIADDWQGPGGIGDYSKSNGNTGKVIRDAHAGIRNHEFEKRLATASDVNEKYDVIIVGAGISGLHSAYDLLRQRPNIKILMLDNHAIFGGEAKQNKMEVDGQALYGGQGPTLYSFVGDDLPSWKGNPALASIMELKTYPKEFGLPTETTWSDKKTDVKVPVDLWFSMASPSQTDIAYRWEGSGLVKNPLLNSFRDAPVSQKSKDAIALMLAVDNGAKRPVEPVGDVSTWVDNMTYAEFLKKVYGADDEAVQLVDQIDVVGTAGLGGDVFNASLAALGLNQYGGIELWNGGLQGLSLPTGNGGVGRSILRKFMPGAIKGGTSLTDTLFGDVNWDVLDHANNNVRIRLNSTVVGVQNNETPTGTKDATVFFLHDNRLYKAKGKAVIMGTPQQVNRNVCLNLPNHLSEAMGDFHHAPILVVNVALRNWKSMEKAGVSGLRWFGEYPGIGQIVRSMVIDGKEIMPCDPSKPAVMTFYIPMNQATRGMPRGEQAMTARHMLFNLTFADIELLIRDQLTRAFGSYGFDAKRDIAAIVANRWGHALVCAGPGFYTGLNGKPPVSKVITAGWDRVAFGHSDLSGRQAWTVAVNYARTAVANVFPKI",northebaine production at pH 4 compared with pH 5-10.5,"[1]; citrate buffer pH 4, 30° C., not observed in glycine-HCL buffer",nearly twice as much
same,difference in northebaine production within the pH range,"[1]; pH range of 5-10.5, 30° C.",no significant difference
same,"morphinan N-demethylase activity (northebaine production, in words)",[2],showed morphinan N-demethylase activity
same,activity (in words),[3]; 5% DMSO,little to no reduction in activity
same,activity (in words),[3]; 5% methanol,little to no reduction in activity
same,activity (in words),[3]; 5% toluene,little to no reduction in activity
same,reduction in activity,[3]; 25% DMSO,21%
same,activity (in words),[3]; 25% chloroform,completely abolished
same,reduction in activity,[3]; 25% methanol,43%
same,activity (in words),[3]; 25% tetrahydrofuran,completely abolished
same,reduction in activity,[3]; 25% toluene,44%
same,reduction in activity,[3]; diethyl ether (25%),66%
same,activity (in words),"[3]; heptane, outlier, heptane sat on top of the reaction",no reduction in activity
same,amount of northebaine produced after Proteinase K treatment of the enzyme,[4],increased
same,ability to demethylate thebaine after pre-incubation (stability),[5],maintained its ability to demethylate thebaine
same,temperature of highest northebaine accumulation,[6],60 °C
